From patent US20260116920A1 (PEPTIDREAM, published 2026)
Several values for one entry are separate records, joined by “and”; a condition that tells them apart may be missing. Equal values may be shown once. Starred links: 1 amine or outer side, 2 acyl side, 3 side chain; linkers in the order of their positions; H or OH if unused. Positions of bridges follow the written chain, without caps; N, C: chain ends. Non-standard residues stand in square brackets, D forms with d. Primed or numbered codes have the meaning given here. No end group written: not given here. *: point of attachment. E(PEG8Me) = (S)-30-amino-27-oxo-2,5,8,11,14,17,20,23-octaoxa-26-azahentriacontane-31-oic acid, COCCOCCOCCOCCOCCOCCOCCOCCNC(=O)CC[C@H](N[*:1])C(=O)[*:2]; Phe(4-OMe)(3) = (S)-2-amino-3-(4-methoxyphenyl)propanoic acid (source code F4OMe), COc1ccc(C[C@H](N[*:1])C(=O)[*:2])cc1; F4aao = (S)-2-amino-3-(4-(carboxymethoxy)phenyl)propanoic acid, O=C([C@H](Cc1ccc(OCC(=O)[*:3])cc1)N[*:1])[*:2]; Phe(4-OMe)″ = (S)-2-amino-3-(4-methoxyphenyl)propanoic acid (F4OMe), COc1ccc(C[C@H](N[*:1])C(=O)[*:2])cc1; Phe(4-OMe) = F4OMe = (S)-2-amino-3-(4-methoxyphenyl)propanoic acid, COc1ccc(C[C@H](N[*:1])C(=O)[*:2])cc1; Ndm = N4,N4-dimethyl-L-asparagine, CN(C)C(=O)C[C@H](N[*:1])C(=O)[*:2]; Trp(1-CH2CO) = O=C([C@H](Cc1cn(CC(=O)[*:3])c2ccccc12)N[*:1])[*:2]; Trp(5-Cl) = N[C@@H](Cc1c[nH]c2ccc(Cl)cc12)C(=O)O; Nle(6-morpholino) = N[C@@H](CCCCN1CCOCC1)C(=O)O; Phe(3-COOH) = N[C@@H](Cc1cccc(C(=O)O)c1)C(=O)O; NH(CH2CH2O)8Me = COCCOCCOCCOCCOCCOCCOCCOCCN*; NMePhe(3-Cl) = CN[C@@H](Cc1cccc(Cl)c1)C(=O)O; NMePhe(4-F) = CN[C@@H](Cc1ccc(F)cc1)C(=O)O; 3Pal(6-NH2) = Nc1ccc(C[C@H](N)C(=O)O)cn1; NMeY = CN[C@@H](Cc1ccc(O)cc1)C(=O)O; NMeR = CN[C@@H](CCCNC(=N)N)C(=O)O; NMeF = CN[C@@H](Cc1ccccc1)C(=O)O; 3Pal = N[C@@H](Cc1cccnc1)C(=O)O; 4Pal = N[C@@H](Cc1ccncc1)C(=O)O

Experiments:
[1] = biological target: T1, human transferrin receptor (hTfR) (human, UniProt P02786 89-760); experiment: SPR; C = KD 100 nM-1 uM
T1 construct: used as 0.5 uM hTfR dimer solution, immobilised on an NTA sensor chip (Ni capture plus EDC/NHS coupling); also called human TfR; TfR1
T1 sequence (P02786 89-760 limits assumed): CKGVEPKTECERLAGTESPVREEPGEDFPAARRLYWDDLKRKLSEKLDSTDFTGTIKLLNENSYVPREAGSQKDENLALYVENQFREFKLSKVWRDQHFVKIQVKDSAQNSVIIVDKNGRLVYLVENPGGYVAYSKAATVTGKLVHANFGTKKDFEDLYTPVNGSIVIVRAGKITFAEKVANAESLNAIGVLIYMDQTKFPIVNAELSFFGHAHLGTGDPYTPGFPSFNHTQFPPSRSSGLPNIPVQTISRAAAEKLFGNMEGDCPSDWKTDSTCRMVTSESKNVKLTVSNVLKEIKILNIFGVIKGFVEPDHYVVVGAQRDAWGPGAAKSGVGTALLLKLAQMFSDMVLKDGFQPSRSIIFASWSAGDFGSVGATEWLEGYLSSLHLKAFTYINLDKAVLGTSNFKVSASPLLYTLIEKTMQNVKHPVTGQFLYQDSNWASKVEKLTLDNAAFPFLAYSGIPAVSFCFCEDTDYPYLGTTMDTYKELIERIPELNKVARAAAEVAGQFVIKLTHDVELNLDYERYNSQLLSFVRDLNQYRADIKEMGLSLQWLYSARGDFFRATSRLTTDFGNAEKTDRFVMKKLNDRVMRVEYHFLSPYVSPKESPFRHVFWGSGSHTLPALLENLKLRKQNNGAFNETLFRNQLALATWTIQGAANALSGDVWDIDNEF
Description: (§1) NTA sensor chip (Global Life Sciences Technologies Japan K.K.) was inserted into BiacoreT200 (Global Life Sciences Technologies Japan K.K.), then the priming operation was performed three times by using running buffer containing: 10 mM HEPES pH 8.0 (Nacalai Tesque, Inc.), 150 mM NaCl (Nacalai Tesque, Inc.), 0.05% Tween 20 (Nacalai Tesque, Inc.), 0.1% BSA (SIGMA-ALDRICH) and 1.0% DMSO (FUJIFILM Wako Pure Chemical Corporation), and equilibrated at a flow rate of 30 μL/min. 350 mM EDTA solution was reacted at a flow rate of 10 μL/min for 60 seconds, 0.5 mM […] solution (Kishida Chemical Co., Ltd.) was reacted at a flow rate of 10 μL/min for 60 seconds, and then the NTA sensor chip was washed with 3 mM EDTA solution (Nacalai Tesque, Inc.) at a flow rate of 10 μL/min for 60 seconds. After mixing 50 μL each of 60 mM EDC solution (Global Life Science Technologies Japan K.K.) and 650 mM NHS solution (Global Life Science Technologies Japan K.K.), the reaction was carried out at a flow rate of 10 μL/min for 420 seconds. 150 μL of 0.5 μM hTfR dimer solution was prepared by dilution with running buffer and reacted at a flow rate of 10 μL/min for 300 seconds to immobilize hTfR on the NTA sensor chip. For the human transferrin receptor (hTfR), recombinant hTfR described in Example 2 of WO2018/124121 was used. After immobilization, capping was performed by reacting with 1.0 M ethanolamine solution (Global Life Sciences Technologies Japan K.K.) at a flow rate of 10 μL/min for 420 seconds. Peptide lysate prepared in DMSO solution to 10 mM was diluted with running buffer to be a final concentration of 10 μM peptide lysate, then peptide solutions of 100 nM, 50 nM, 25 nM, 10 nM, and 5 nM were prepared. Using the above samples, the kinetics of the peptide against hTfR was obtained by SPR measurement.
(§2) The kinetic evaluation model was single-cycle kinetics, and curve fitting was performed using Biacore T200 Evaluation Software Version 3.0 (Global Life Science Technologies Japan K.K.). The binding of the peptide to hTfR was evaluated by performing curve fitting on the obtained sensorgram by least squares method and obtaining the KD value.

[2] = biological target: T1, human transferrin receptor (hTfR); experiment: SPR; A = KD <1 nM
Description: as §1, §2

[3] = biological target: T1, human transferrin receptor (hTfR); experiment: SPR, hTfR immobilised, single-cycle kinetics
Description: (§3) NTA sensor chip (Global Life Sciences Technologies Japan K.K.) was inserted into BiacoreT200 (Global Life Sciences Technologies Japan K.K.), then the priming operation was performed three times by using running buffer containing: 10 mM HEPES pH 8.0 (Nacalai Tesque, Inc.), 150 mM NaCl (Nacalai Tesque, Inc.), 0.05% Tween 20 (Nacalai Tesque, Inc.), 0.1% BSA (SIGMA-ALDRICH) and 1.0% DMSO (FUJIFILM Wako Pure Chemical Corporation), and equilibrated at a flow rate of 30 μL/min. 350 mM EDTA solution was reacted at a flow rate of 10 μL/min for 60 seconds, 0.5 mM […] solution (Kishida Chemical Co., Ltd.) was reacted at a flow rate of 10 μL/min for 60 seconds, and then the NTA sensor chip was washed with 3 mM EDTA solution (Nacalai Tesque, Inc.) at a flow rate of 10 μL/min for 60 seconds. After mixing 50 μL each of 60 mM EDC solution (Global Life Science Technologies Japan K.K.) and 650 mM NHS solution (Global Life Science Technologies Japan K.K.), the reaction was carried out at a flow rate of 10 μL/min for 420 seconds. […]
as §2

[4] = biological target: T1, human transferrin receptor (hTfR); experiment: SPR; ratio to 894_3151
[5] = biological target: T1, human transferrin receptor (hTfR); experiment: SPR, hTfR immobilised; legend: low signal indicates no activity
Description: as §3, §2

Row | Binder | KD [1] [nM] | KD [2] [nM] | also measured
1 | {CH2CO}-AV[NMePhe(3-Cl)]V[Trp(1-CH2CO)]N[3Pal(6-NH2)][3Pal]IIRE(NH(CH2CH2O)8Me)[Phe(3-COOH)][NMeY]C-NH2 (thioether N-15; also: linker PEG4c) [894_0353] | 100 to 1000 | – | –
2 | {CH2CO}-AV[NMePhe(3-Cl)]V[Trp(1-CH2CO)]N[3Pal(6-NH2)][3Pal]IIRE(NH(CH2CH2O)8Me)[4Pal][NMeY]C-NH2 (thioether N-15; also: linker PEG4c) [894_0354] | 100 to 1000 | – | –
3 | {CH2CO}-AV[NMePhe(3-Cl)]V[Trp(1-CH2CO)]N[3Pal(6-NH2)][F4aao]IIRE(NH(CH2CH2O)8Me)[Phe(3-COOH)][NMeY]C-NH2 (thioether N-15; also: linker PEG4c) [894_0355] | 100 to 1000 | – | –
4 | {CH2CO}-AV[NMePhe(3-Cl)]V[Trp(1-CH2CO)]NY[F4aao]II[Nle(6-morpholino)][Nle(6-morpholino)]F[NMeY]C-NH2 (thioether N-15; also: linker PEG4c, place not given here) [894_0390] | – | – | binding result [2]: binds
5 | {CH2CO}-AV[NMeF]VWNYYIIRRY[NMeY]C (thioether N-15; not fully specified (C-terminus)) [894_3151] | – | < 1 | Kd [3]: 1.3 nM and 1.8 nM; KD (Each Peptide)/KD (894_3151) [4]: 1 and 1.4
6 | {CH2CO}-AV[NMePhe(3-Cl)]V[Trp(1-CH2CO)]NY[Phe(4-OMe)(3)]IERRF[NMeY]C-NH2 (thioether N-15; also: linker G-de-de-de-ds-ds-KN3, attachment not given here) [894_3167] | – | < 1 | –
7 | {CH2CO}-AV[NMePhe(3-Cl)]V[Trp(1-CH2CO)]NY[Phe(4-OMe)(3)]IE[E(PEG8Me)][E(PEG8Me)]F[NMeY]C-NH2 (thioether N-15; also: linker G-de-de-de-ds-ds-KN3, attachment not given here) [894_3180] | – | – | binding result [5]: no binding (tested: peptide tested up to 100 nM)
8 | AVFVWNYYIIKRYYC (3:MeF,5:MeW,14:MeY; linker G-ds-ds-ds-ds-ds-KN3; ClAc-1/C15 thioether ring; C-term NH2) [894_3200] | – | – | binding result [2]: binds
9 | {CH2CO}-AV[NMePhe(3-Cl)]V[Trp(1-CH2CO)]NY[Phe(4-OMe)″]IIRRF[NMeY]C-NH2 (thioether N-15; also: linker PEG4c, place not given here) [894_0391] | – | < 1 | –
10 | {CH2CO}-AV[NMePhe(3-Cl)]VWNY[F4aao]IIRRF[NMeY]C-NH2 (thioether N-15; also: linker PEG4c, place not given here) [894_0392] | – | < 1 | –
11 | {CH2CO}-AV[NMeF]V[Trp(5-Cl)]NY[Phe(4-OMe)]IIRRFYC-NH2 (thioether N-15; not fully specified (residue 14); also: linker PEG4c, place not given here) [894_0251] | – | < 1 | –
12 | {CH2CO}-AV[NMePhe(3-Cl)]VWNY[Phe(4-OMe)]IIRRFYC-NH2 (thioether N-15; not fully specified (residue 14); also: linker PEG4c) [894_0280] | – | < 1 | –

Continued, in another order:

Row | KD [1] [nM] | KD [2] [nM] | Binder | also measured
13 | 100 to 1000 | – | {CH2CO}-AV[NMePhe(4-F)]V[Trp(5-Cl)]NYYII[NMeR][dR]FYC-NH2 (thioether N-15; not fully specified (residue 14); also: linker PEG4c, place not given here) [894_0257] | –
14 | 100 to 1000 | – | {CH2CO}-AV[NMePhe(3-Cl)]V[Trp(1-CH2CO)]N[3Pal(6-NH2)][F4aao]IIRE(NH(CH2CH2O)8Me)[4Pal][NMeY]C-NH2 (thioether N-15; also: linker PEG4c) [894_0356] | –
15 | 100 to 1000 | – | {CH2CO}-AV[NMePhe(3-Cl)]VWN[3Pal(6-NH2)][F4aao]II[E(PEG8Me)]R[4Pal][NMeY]C-NH2 (thioether N-15; also: linker PEG4c, attachment not given here) [894_0455] | –
16 | 100 to 1000 | – | {CH2CO}-AV[NMeF]VW[Ndm]YYIIRRY[NMeY]C-NH2 (thioether N-15; SMILES CC[C@H](C)[C@@H]1NC(=O)[C@H](Cc2ccc(O)cc2)NC(=O)[C@H](Cc2ccc(O)cc2)NC(=O)[C@H](CC(=O)N(C)C)NC(=O)[C@H](Cc2c[nH]c3ccccc23)NC(=O)[C@H](C(C)C)NC(=O)[C@H](Cc2ccccc2)N(C)C(=O)[C@H](C(C)C)NC(=O)[C@H](C)NC(=O)CSC[C@@H](C(N)=O)NC(=O)[C@H](Cc2ccc(O)cc2)N(C)C(=O)[C@H](Cc2ccc(O)cc2)NC(=O)[C@H](CCCNC(=N)N)NC(=O)[C@H](CCCNC(=N)N)NC(=O)[C@H]([C@@H](C)CC)NC1=O) [894_3152] | –
17 | – | < 1 | {CH2CO}-AV[NMePhe(4-F)]V[Trp(5-Cl)]NY[Phe(4-OMe)]IIRRFYC-NH2 (thioether N-15; not fully specified (residue 14); also: linker PEG4c, place not given here) [894_0255] | –
18 | – | < 1 | {CH2CO}-AV[NMePhe(3-Cl)]V[Trp(1-CH2CO)]NY[F4aao]IIRRF[NMeY]C-NH2 (thioether N-15; also: linker G-de-de-de-ds-ds-KN3, attachment not given here) [894_3168] | –
